We go through 3 molecules from article PMC3079584, “A Cytoplasmic Complex Mediates Specific mRNA Recognition and Localization in Yeast” (PLoS Biology, 2011).

In test [1] the target is T1, She2p (wild type) (Saccharomyces cerevisiae, UniProt P36068 1-246).
T1 construct: She2p, Saccharomyces cerevisiae, Gene ID 853728; also called She2p (wt); wild-type She2p
Put plainly: SEC; analytical; She2p, His-She3p C-terminal fragment and RNA (ternary complex formation, Figure 4E); which RNA is not told in the legend. The following applies: both partners purified.

Test [2] has as its target T1, She2p (wild type). Description: pull-down; His-tagged She3p (full length, point mutants, or MBP-She3p fragment-His) on nickel sepharose, no RNA; 7.5–10 µM of each protein, HNMD-buffer (20 mM HEPES pH 7.8, 200 mM NaCl, 2 mM MgCl2, 2 mM DTT) with 30–50 mM imidazole, 30–60 min at 4°C; SDS-PAGE, Coomassie. The conditions noted are these: both partners purified.

T1 sequence (P36068 whole entry): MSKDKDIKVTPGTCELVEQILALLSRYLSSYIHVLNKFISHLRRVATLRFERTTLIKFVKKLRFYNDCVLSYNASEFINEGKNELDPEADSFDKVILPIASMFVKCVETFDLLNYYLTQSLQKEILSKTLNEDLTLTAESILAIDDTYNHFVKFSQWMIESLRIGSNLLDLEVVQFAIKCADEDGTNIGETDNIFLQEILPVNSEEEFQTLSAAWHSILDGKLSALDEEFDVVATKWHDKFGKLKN

B1: His-She3p (334–425) (domain or fragment, Saccharomyces cerevisiae)
chain: GPLGSMGNSSNNKRRSFYTASPLLSSGSIPKSASPVLPGVKRTASVRKPSSSSSKTNVTHNNDPSTSPTISVPPGVTRTVSSTHKKKGNSMVVHGAQS
notes: it precedes G334 at the N-terminus of the construct
As to B1, the binding result in test [1] is “binds”.

B2: MBP-She3p(354–425)-His (domain or fragment, Saccharomyces cerevisiae, UniProt P38272 354-425, looked up)
chain: GSIPKSASPVLPGVKRTASVRKPSSSSSKTNVTHNNDPSTSPTISVPPGVTRTVSSTHKKKGNSMVVHGAQS
With B2, the binding result in test [2] was “binds”.

B3: MBP-She3p(334–425)-His (domain or fragment, Saccharomyces cerevisiae, UniProt P38272 334-425, looked up)
chain: GNSSNNKRRSFYTASPLLSSGSIPKSASPVLPGVKRTASVRKPSSSSSKTNVTHNNDPSTSPTISVPPGVTRTVSSTHKKKGNSMVVHGAQS
In the case of B3, in test [2], the binding result is given as “binds”.
